For orientation: IC50 means the concentration that inhibits the measured activity by half.

The source of these data is patent publication US20220251222A1 (Johns Hopkins, published 2022).

The target of assay [1] is T1, human IL-6Rα extracellular domain (ECD), residues 89-303 of the mature protein, with C-terminal biotin … (human, UniProt P08887 108-322, biotinylated with BirA ligase on the biotin acceptor peptide).
T1 construct: range 89-303; The range 89-303 counts on the mature protein, not on the precursor; Any linkers between the ECD, BAP and His tag are not described; also called IL-6Rα ECD; recombinant IL-6Rα
T1 sequence: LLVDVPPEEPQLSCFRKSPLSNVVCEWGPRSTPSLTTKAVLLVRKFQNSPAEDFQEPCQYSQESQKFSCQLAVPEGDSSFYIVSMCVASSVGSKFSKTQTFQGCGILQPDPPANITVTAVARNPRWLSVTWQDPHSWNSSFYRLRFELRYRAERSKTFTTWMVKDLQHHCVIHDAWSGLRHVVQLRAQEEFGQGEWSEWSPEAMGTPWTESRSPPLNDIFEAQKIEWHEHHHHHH
Nature of the assay: competition: antibody against 300 nM biotinylated IL-6Rα ECD binding to IL-6-displaying yeast, flow cytometry. As for the experimental part: Approximately 1×10⁵ human IL-6-displaying yeast per well were plated in a 96-well plate and washed with PBSA. Yeast cells were incubated with saturating concentrations of biotinylated human IL-6Rα (300 nM) and serial dilutions of unlabeled competitor antibody (either the anti-IL-6R antibody tocilizumab, the anti-IL-8R antibody 10H2, BS1, or BS2) in PBSA for 2 hours at room temperature. Cells were then washed and stained with a 1:200 dilution of Alexa647-conjugated streptavidin (Thermo) in PBSA for 15 min at 4° C. Cells were washed again and assessed for human IL-6Rα binding on a CytoFLEX flow cytometer (Beckman Coulter). Background-subtracted fluorescent signal as a fraction of receptor subunit binding in the absence of competitor antibody was plotted. Curves were fitted to a first order logistic model and half maximal inhibitory concentrations (IC₅₀s) were computed using GraphPad Prism. Assays were performed in triplicate and repeated two times with consistent results.
Tocilizumab is known to compete with IL-6 for IL-6Rα engagement. Thus, bispecific binding agents containing the tocilizumab variable regions (BS1 and BS2) were also expected to obstruct cytokine binding. […] However, tocilizumab (IC₅₀=59 nM), BS1 (IC₅₀=190 nM), and BS2 (IC₅₀=78 nM) all inhibited IL-6/IL-6Rα binding.

Assay [2] addresses T2, IL-6R on IL-6-responsive HepG2 cells (UniProt P08887 20-468, limits assumed).
T2 sequence (looked up): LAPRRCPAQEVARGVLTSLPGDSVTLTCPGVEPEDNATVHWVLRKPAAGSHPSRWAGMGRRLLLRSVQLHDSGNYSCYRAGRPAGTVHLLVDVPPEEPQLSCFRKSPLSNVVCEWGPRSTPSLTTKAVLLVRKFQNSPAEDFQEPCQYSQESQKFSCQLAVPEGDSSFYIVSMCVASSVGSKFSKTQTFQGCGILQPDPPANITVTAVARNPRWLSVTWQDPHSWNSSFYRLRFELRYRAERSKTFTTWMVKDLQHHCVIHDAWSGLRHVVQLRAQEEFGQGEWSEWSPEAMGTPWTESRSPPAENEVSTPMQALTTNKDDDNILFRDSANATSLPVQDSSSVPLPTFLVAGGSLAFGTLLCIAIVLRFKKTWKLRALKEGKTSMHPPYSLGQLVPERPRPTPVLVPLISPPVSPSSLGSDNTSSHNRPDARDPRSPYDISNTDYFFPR
Nature of the assay: cell-based or functional assay.

Assay [3] addresses T3, IL-6Rα expressed on lentivirally transduced HEK 293T cells (UniProt P08887 20-468, limits assumed).
T3 construct: whole, on cells; also called IL-6Rα^+ cells; IL-6Rα^+/IL-8R^- HEK 293T cells
T3 sequence (looked up): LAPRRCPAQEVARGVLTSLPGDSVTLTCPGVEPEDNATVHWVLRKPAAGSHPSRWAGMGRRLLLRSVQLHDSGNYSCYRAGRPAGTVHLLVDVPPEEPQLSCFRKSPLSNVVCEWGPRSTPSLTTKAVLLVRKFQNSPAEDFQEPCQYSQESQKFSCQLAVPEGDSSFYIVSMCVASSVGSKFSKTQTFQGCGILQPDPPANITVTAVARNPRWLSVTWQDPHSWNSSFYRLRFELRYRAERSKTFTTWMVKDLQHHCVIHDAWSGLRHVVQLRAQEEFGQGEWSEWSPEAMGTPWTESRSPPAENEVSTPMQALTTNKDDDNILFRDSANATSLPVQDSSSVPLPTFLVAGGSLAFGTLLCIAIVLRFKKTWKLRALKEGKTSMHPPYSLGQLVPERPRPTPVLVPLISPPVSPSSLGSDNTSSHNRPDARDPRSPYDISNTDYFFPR
The experiment in a line: competition with 100 nM biotinylated IL-6 on IL-6Rα+/IL-8R- HEK 293T cells, flow cytometry. As for the experimental part: IL-6Rα⁺/IL-8R⁻ and IL-6Rα⁻/IL-8R⁺ HEK 293T cells were cultured as previously described, and were trypsinized, resuspended in PBSA, and aliquoted into 96-well plates (2×10⁵ cells per well). IL-6Rα⁺/IL-8R⁻ 293T cells were incubated with titrations of various monoclonal or bispecific antibodies in the presence of saturating concentration of biotinylated IL-6 (100 nM) (Acro Biosystem, cat #: IL6-H8218-25UG) for 2 hr at 4° C. with rotation. Cells were then washed and incubated with 1:200 dilution of Alexa Fluor 647-conjugated streptavidin (Fisher Scientific, cat #: S21374) in PBSA for 15 min at 4° C. After a final wash, cells were resuspended in PBSA and analyzed on a CytoFLEX flow cytometer (Beckman Coulter). Curves were fitted to a first-order logistic model and IC₅₀ values were calculated using GraphPad Prism data analysis software. Mean fluorescence intensity (MFI) of unstimulated cells was subtracted. Similarly, IL-6Rα⁻/IL-8R⁺ 293T cells were incubated with titrations of various monoclonal or bispecific antibodies with saturating concentration of His-tagged IL-8 (400 nM) (Sino Biological, cat #: 10098-H08Y-100) for 2 hr at 4° C. with rotation. […] After a final wash, cells were resuspended in PBSA and analyzed on a CytoFLEX flow cytometer (Beckman Coulter). Curves were fitted to a first-order logistic model and IC₅₀ values were calculated using GraphPad Prism data analysis software. […]

B1: tocilizumab, recombinant monoclonal hIgG1 (anti-IL-6Rα) (antibody, V domains shown)
VH: EVQLQESGPGLVRPSQTLSLTCTVSGYSITSDHAWSWVRQPPGRGLEWIGYISYSGITTYNPSLKSRVTMLRDTSKNQFSLRLSSVTAADTAVYYCARSLARTTAMDYWGQGSLVTVSS
VL: DIQMTQSPSSLSASVGDRVTITCRASQDISSYLNWYQQKPGKAPKLLIYYTSRLHSGVPSRFSGSGSGTDFTFTISSLQPEDIATYYCQQGNTLPYTFGQGTKVEIK
notes: also called anti-IL-6Rα antibody
Take B1: the IC50 in assay [1] is 59 nM; in assay [3], 30 nM. For the same molecule, the “inhibition of IL-6 signaling (pSTAT3) in HepG2 cells (IC50)” value in assay [2] came to 76 nM.

B2: BS2 bispecific antibody (scFv-IgG fusion: 10H2 IgG with tocilizumab scFv on the light chains) (bispecific antibody)
heavy: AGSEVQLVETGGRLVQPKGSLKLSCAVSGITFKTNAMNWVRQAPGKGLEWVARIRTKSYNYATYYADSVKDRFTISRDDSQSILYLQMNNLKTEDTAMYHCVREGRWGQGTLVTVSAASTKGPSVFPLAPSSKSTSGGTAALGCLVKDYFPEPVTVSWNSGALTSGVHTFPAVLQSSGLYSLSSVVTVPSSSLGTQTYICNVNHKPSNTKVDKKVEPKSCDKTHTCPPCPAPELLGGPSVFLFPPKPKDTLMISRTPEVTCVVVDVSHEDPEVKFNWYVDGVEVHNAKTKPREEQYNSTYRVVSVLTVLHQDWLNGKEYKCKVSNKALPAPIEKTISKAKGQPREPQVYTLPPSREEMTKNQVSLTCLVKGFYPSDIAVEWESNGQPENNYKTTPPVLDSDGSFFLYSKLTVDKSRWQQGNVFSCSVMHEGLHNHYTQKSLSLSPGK
light: AGSQAVVTQESALTTSPGETVTLTCRSSTGAVTTSNYANWVQEKPDHLFTGLIGGTNNRPPGVPARFSGSLIGDKAALTITGAQIEDEAIYFCALWYSNHLVFGGGTKLTVLRTVAAPSVFIFPPSDEQLKSGTASVVCLLNNFYPREAKVQWKVDNALQSGNSQESVTEQDSKDSTYSLSSTLTLSKADYEKHKVYACEVTHQGLSSPVTKSFNRGECGGGGSGGGGSEVQLQESGPGLVRPSQTLSLTCTVSGYSITSDHAWSWVRQPPGRGLEWIGYISYSGITTYNPSLKSRVTMLRDTSKNQFSLRLSSVTAADTAVYYCARSLARTTAMDYWGQGSLVTVSSGGGGSGGGGSGGGGSDIQMTQSPSSLSASVGDRVTITCRASQDISSYLNWYQQKPGKAPKLLIYYTSRLHSGVPSRFSGSGSGTDFTFTISSLQPEDIATYYCQQGNTLPYTFGQGTKVEIK
notes: Human IgG1-based
For the molecule B2, the values for the IC50 in assay [1] and in assay [3] were 78 nM and 96 nM, respectively. Besides, the “inhibition of IL-6-induced STAT3 phosphorylation in HepG2 cells (IC50)” value in assay [2] worked out at 220 nM.
